Test results taken from patent US20250313612A1.

Assays:
[1] = target: RSV F protein of subtype A (strain A2) on recombinant mKate-RSV (Respiratory syncytial virus subtype A (strain A2)) (UniProt P03420); test: cell-based or functional assay
[2] = target: human metapneumovirus (HMPV) F protein on GFP-expressing hMPV (NL/1/00, A1 sublineage) (human metapneumovirus); test: cell-based or functional assay

Chain of RSV F protein of subtype A (strain A2) on recombinant mKate-RSV (Respiratory syncytial virus subtype A (strain A2)) (P03420 26-574): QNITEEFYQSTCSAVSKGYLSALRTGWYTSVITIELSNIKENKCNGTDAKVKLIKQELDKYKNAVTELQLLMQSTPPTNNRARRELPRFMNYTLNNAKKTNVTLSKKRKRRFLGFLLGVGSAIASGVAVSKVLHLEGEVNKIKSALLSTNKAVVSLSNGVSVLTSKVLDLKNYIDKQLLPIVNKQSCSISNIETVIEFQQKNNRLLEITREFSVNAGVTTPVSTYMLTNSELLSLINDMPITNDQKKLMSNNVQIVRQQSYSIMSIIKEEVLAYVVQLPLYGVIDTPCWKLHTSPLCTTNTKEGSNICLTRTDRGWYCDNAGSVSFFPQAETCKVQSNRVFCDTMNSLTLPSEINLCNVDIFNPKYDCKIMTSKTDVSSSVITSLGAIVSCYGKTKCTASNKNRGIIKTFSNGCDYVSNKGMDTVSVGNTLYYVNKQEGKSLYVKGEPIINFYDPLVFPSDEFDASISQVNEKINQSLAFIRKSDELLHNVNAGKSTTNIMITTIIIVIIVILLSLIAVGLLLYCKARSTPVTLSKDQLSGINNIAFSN

In the case of MPE8 (antibody), the RSV-A2 IC50 [1] is reported as 0.04 mg/L and the HMPV-A1 IC50 [2] is reported as 0.07 mg/L.
